{"source": "patent US20260117244A1", "about": "“INHIBITORY RNA FOR THE CONTROL OF PHYTOPATHOGENS” (priority 2021, published 2026)", "key": {"[1]": {"tested_on": "grapevine powdery mildew E. necator", "experiment": "Vineyard field trials of topical dsRNA: powdery mildew disease incidence and disease severity (Kearney and Armstrong sites)", "format": "in vivo, Erysiphe necator", "conditions": "for powdery mildew disease incidence: Chenin Blanc, 3 weeks after end of treatments (June 23), untreated ~80%; for mean disease severity (percent of berries with powdery mildew per bunch): June 28, almost 4 weeks post dsRNA treatment, untreated 12%", "protocol": "The tests were done at Kearney Agriculture Research and Extension Center, Parlier, CA (Fresno County) and Armstrong Plant Pathology Field Station at University of California, Davis, CA. Susceptible grapevine cultivars were tested—Sauvignon Blanc at Kearney and Chenin Blanc at Davis. In both cases, the Stihl backpack sprayer SR450 was used and sprayer calibration, and normalization was performed to ensure equal doses of treatment applied to each replicate. During the trial period, vines were irrigated by drip irrigation and the regular maintenance of weeding, herbicide and insecticide treatments were done by the Kearney or Davis site field staff. In early season, 2.0 gallons/5 replicates and in mid to late season 2.5 to 3.0 gallons/5 replicates were sprayed. All appropriate personal protective equipment (PPE) was used and required training was completed including pesticide application training and heat exhaustion training. A randomized block design was used with 5 replicates for each treatment. Two adjacent vines were used as one experimental unit and the area between two trunks (yellow box) was sprayed and assessed (FIG. 16).\nThe trial was conducted at Kearney Agricultural Research and Extension Center, Parlier, CA on blocks of the susceptible white wine variety Sauvignon Blanc. Total of 5 different gene targets from grapevine powdery mildew E. necator, EnCYP51 (SEQ ID NO:182), EnLIP1 (SEQ ID NO:183), EnICL2 (SEQ ID NO:186), EnMS (SEQ ID NO:188) and EnAPG9 (SEQ ID NO:208) were tested at this site by backpack spraying of the experimental units with dsRNA designed specifically against these target genes. The treatments were placed in a randomized block design with 5 replicates of each (dsRNA treatments 1-5), 5 replicates of Gold Standard (GS) and 5 replicates of untreated control (UT Control). Gold Standard refers to the pesticides normally used by growers to control powdery mildew: Sulfur and other chemical fungicides such as Rally, Quintec, and Luna. Between each treatment replicate, consisting of two vines, there was a spacer vine to avoid the spray drift from one treatment another.\nFIG. 17 provides an overview of the treatment schedule at Kearney. A total of 4 treatments of dsRNA were performed between May and July, replacing the 4 final treatments of the GS. Data were collected at the times marked by the gray dots in FIG. 17. The monitoring of powdery mildew index data and manual scouting of disease in the field was used to adjust timing schedule per standard protocol (www2.ipm.ucanr.edu/weather/grape-powdery-mildew-risk-assessment-index/?src=redirect2refresh).\nThe total number of bunches per replicate (mean of 130) and the bunches with powdery mildew growth were counted and percent of infected bunches per replicate was calculated.\nDisease severity was calculated by counting the number of infected berries compared to total berries in a bunch. 25 bunches from both sides of the canopy were assessed per replicate.\nThis trial was conducted at University of California Davis Plant Pathology Armstrong Facility on white wine variety Chenin Blanc. A total of 4 different gene targets from grapevine powdery mildew E. necator, EnLIP1 (Seq ID No:183), EnICL2 (Seq ID 186), EnMS (Seq ID No:188) and EnAPG9 (Seq ID No:208) were tested at this site by treating the vines with dsRNA designed against these target genes. A randomized block design with 5 replicates of each (treatments 1-5) and 5 replicates of untreated control (UT Control) was utilized. Spray protocols and spray volumes were the same as done by Akif Eskalen's team as shown on this link (Elfar et al. 2021, ucanr.edu/sites/eskalenlab/files/355630.pdf) and in Table 10. Eskalen's lab performed 3rd party commercial fungicide trials for the industry.\nIn this field trial, a total of 3 sprays of dsRNA were performed between May and early June (FIG. 21). For the dsRNA treatments, no parallel chemical treatments were performed prior to the dsRNA treatments. […]"}, "G. orontii MGH1": {"tested_on": "G. orontii MGH1", "experiment": "Spray-induced gene silencing (SIGS), G. orontii spore production on A. thaliana (whole plant and detached leaf assays)", "format": "in vivo, Golovinomyces orontii", "conditions": "topical dsRNA against G. orontii target (Gor Seq ID), n>=3"}}, "data": [{"molecule": "EnLIP1: dsRNA against E. necator TAG lipase 1 (target SEQ ID NO:183) (nucleic acid, misc_feature 1..298: note = Inhibitory double stranded RNA; listed as RNA) ATTAATACTGGTGCTGTACAGCGCCTATTACACATTAATGAGGACTGTTTAACTGTCACTGTTCAAAAACCATCATATGCGACTCCCGACTCTAAGTTTCCTGTCGTGTTCTCTCTATTTTTTGGAGGGTTTGGTTTTGGTTCAACGGCAATATATGATGCCTCTAAACTTATTCAAGCAGGTATCAATGCAGGTAAACCTATCGTCTACGTTGCTGTAAATTATCGTTTGGGTGCATTTGGATGGCTTGGAGGAAGAGAAATTAAAGAGGCAGGTCTCGCTAATCTTGGCCATTACG", "values": [{"measurement": "powdery mildew disease incidence", "setting": "[1]; Armstrong site", "value": "~20", "unit": "%"}, {"measurement": "mean disease severity (percent of berries with powdery mildew per bunch)", "setting": "[1]; Armstrong site", "value": 1, "unit": "%"}]}, {"molecule": "169 (nucleic acid, listed as Golovinomyces orontii, listed as DNA) ATGGATATGGATATGAATATGAGCACAGGAATGAATGCAAGTCCAATAATCGGAGGCAACGAAGTCCATTCACATCCAATGGATATGGGAAGGGATATGTCGATGACTTTTTTTAATGGCATGACAACTAAACTCTATACCTCGACGTGGGCACCAAAAAGTTTAGGCACTTATATAGCGACTTGTTTATTTCTCATCGCTTTATCCAGCATATCTAGGTTTCTATTAGCCGCCAAGTTATGGCTAGAAACAACTTGGATGAACGCTGAGCTCAATCGAAAATATGTTACGGCTGCTGGAAAAGTACCAATCTCAGAACAGATTTCAATGAAGTCTGAAGCTCGGCAAATGGTACTATCTGGAAATGGTTTTGAAGAAGATGTGATAGTCGTTCAAAAGAAAGGATTCCGTGTACGGCCCTGGAGTATTACTGTGGATCCAATCCGAGCGCTGATAGACACCACAATTATGGCAGTGGGATTATTAATAATGCTGGCCGTTATGACAATGAATATTGGGTATTTTATATCGGTTTTGATAGGCACATTTATTGGCAGCCTAGTTGTCGGGCGTTATTCTCCTGAATAA", "values": [{"measurement": "G. orontii Spore Production on Arabidopsis, Detached Leaf Assay, % reduction", "setting": "G. orontii MGH1", "value": 54, "unit": "%"}]}, {"molecule": "181 (nucleic acid, listed as Golovinomyces orontii, listed as DNA) ATGTCTAATCAGCTAAAACATCCCTCTTTACTCATTCCAGGCCCCGTTGAGATTGACGATGCTGTCCTTCACTCTATGAGCCATCACAGATCCTCATCTTACTGCAGTGAGAGCCATGTGGACATATCGTTTATAAAAACTTTTGGAAAAACGTTGTACATGCTCAGGAAGCTATTCCAATCTAATGATCCTTACTCTCAACCATTCGTAATTTCCGGATCTGGTACCCTAGGATGGGATCTAGTAGCCGCAAATTTAGCGGAACGCGGTGATGATGTCTTAGTATTACACACGGGTTACTTTGCAGACTCTTTCTCCGATTGCTTTGAGACCTACGGGATAAACGTCACACAGCTTATAGCTCCGATTGGTTCAAGACCCCAACTAATAGAGATTGAAGAAGAATTATCAAAAAAGACCTACAAACTTCTAACAGTGACCCATGTCGATACCTCGACTGGCGTATTAAATGAACTGGAGCCAATTTCAGAAATAGTTCATCGGGTTTCTCCTGAGACCCTTGTAATTGTTGATGGAGTGTGCAGTGTCGGGTCTGAGGAGATCGCTTTCGACTCCTGGAAACTCGATGGAGTTATCACTGCAAGCCAGAAAGCAATTGGTGCACCGGCTGGTCTTTCCATCTCAATTTTCAGTGGCCGTGCGATTCAGTCATTTAATGACCGACAGACTCCTCCTGGGTCTTACTATGCATCATTCAAGAATTGGATGCCTATCATGCAGAGCTATGAAGCCCAAGAGCCTTCATATTTTGCAACTCCATCCATTCATTTGATCCATGCACTTCACACCTCTTTAACGCAAATTCTCTCACGCCCTCTTTCAGAGCGGTTCACTATTCACAGAGAAATATCTCAAAGAGTAAAAGAAGCAGTTTCTGGAATGGGATTAACTCAGTTGGCTGCCAATCCTGAAAATCAAGCAAACGGAATGACAGCAATATATTTGCCAGATAATATTAAAGCGAAAGACCTTTTAACCAAGATACTTCAAAAAGGAGTTGTTCTTGCTGGTGGATTACATAAAGAAATTGCTCATAAGTATATTCGCTTTGGTCATATGGGGGTGAGCGTGACCAAGCCTGAAAGGGGTGATATTGAACGAGCTATCAAAGCTTTGGAGACAAGTCTTTCAGAGTTAGGATATCGTAGAGAGAAACAGTCTTAG", "values": [{"measurement": "G. orontii Spore Production on Arabidopsis, Detached Leaf Assay, % reduction", "setting": "G. orontii MGH1", "value": 62, "unit": "%"}]}, {"molecule": "EnAPG9: dsRNA against E. necator Autophagy protein Apg9 (target SEQ ID NO:208) (nucleic acid, listed as Golovinomyces orontii, listed as DNA) ATGCCGTCTATCCCCATCACTATCATTACTGGCTTTCTAGGGTCTGGTAAAACAACTCTCCTTCTCAATATTCTTCCTCAAATACTTGCCAAGAATCCGAAATATAAATTAGCGCTTCTCAAAAATGAATTTGGAGATTTGGCTGTCGATAGTCAACTTGCAGGCTCTTCTATCACTGGTGTTCGTGAGATTCTAAATGGCTGCATTTGCTGTAACCTCGTCGGCTCTCTCTCATCGGCCCTTGAGGAGCTCACAGAGAGTATTTCTCCCGACCGAATAGTGATTGAAACGTCTGGGTCAGCATTCCCTGCAACGCTAGCTATGGAGGTTAATCGACTAGCGCGGGAGACCCAGGGTAAATATGTTCTAGATGGTGTAGTGACTGTTATTGATGTCGAAAACTGGAAGGGATATGAAGATACTAGCTTTACCGCACGATTACAAGCTCGTTACACAGATCTTGTTGTTTTTAATAAGTGGGAGGATGTTGGTGAAAGGAGGTGGGACGAATGTTTAGATCGACTGGGTGATATGGAGGTTGAAATTCCATGGGTTAAGAGTCAGAGGGGATTTGTTGATATGGATATTATCTTTGGCCTTGATGGAGGACTAGCAAAAGAATTAGAGGGAGAAGTAGAGCAAGGCCTACATCAGCAAAAAAAAACGCACAAGGACGGCGAAAGTCACCAGAACGAGGTTGAGGTACTTTCTGTCACCCTTTCTAAAAAATCTGATATCTCCTCGACCATTACACGTCCGAATTCAGAGCTTACCCCAAAAATTGATACTGATGCTCTGCTGAAACTTCTCCAAACAGCACCCAAGGACGAGGTCTACCGGATAAAGTCAATCTTTACTTCTTCTACACCTATGCCTTCATCTACTCCTATATCATCTTCAGATCTATCAGAAACGCCAGTGTCTTCAGTTGCTGGCCCAAATAAATACATTCTAAATTGGTCATTTGGTCGCTGGACCTGCACACCTATGCCCTCCACTAATTCTTCAACCACAGGAGACAGCTTTGAGCACCCATCTAGCGAGGCCGTAGGTCAAGGAGAAGTTTTCCTTCGCATGATTATAATTCTCTCAAGAGGTGCTGGTAAGAAATGGAAAAAAAGACTTGAGGATGGAGGTTTTATACGTTTCAAGGGTGTGGCCGGAACCGACGTACAGAATTTAAATGTTGTTCCCATCAGTTAA", "values": [{"measurement": "powdery mildew disease incidence", "setting": "[1]; Armstrong site", "value": "~20", "unit": "%"}, {"measurement": "fold by which average disease incidence of untreated control increases faster than that of the dsRNA treatment (slopes)", "setting": "[1]; Armstrong site, FIG. 22 panel B", "value": 2.74, "unit": "fold"}, {"measurement": "mean disease incidence", "setting": "[1]; Armstrong site, July 16, more than six weeks after dsRNA treatments", "value": 24, "unit": "%"}, {"measurement": "mean disease severity (percent of berries with powdery mildew per bunch)", "setting": "[1]; Armstrong site", "value": 1, "unit": "%"}, {"measurement": "powdery mildew infection / disease in vineyard", "setting": "[1]; topical spraying, vineyard field trials 2021, trial sites in California", "value": "effective"}]}, {"molecule": "179 (nucleic acid, listed as Golovinomyces orontii, listed as DNA) ATGCAGATCTCACGCATCACATTTATCTCTTTCTTCATCGCCCTTGTCGCGGCTCATCCAACTCTTAATGAACGACAAACAATTACCATCCCAAAAATTCCTGAAGTTCCAGCCGTCCCCGAAGTTCCCGCTGTTCCTGAAGTACAAAAGCGTCAACAGACGATAACTGTTCCCACGATCCCCACGATTCCTACCGTGCCAGATGTTCCTGCTGACACACGAATAAAGCTGTCCACAAACTCAATGGCTACGCCAAACTCTATGCTGGACAAGAGACCTGAAGTGTGGCATATCCATGATAACCGGATAACTGGTCGGAAAATATTCAAAGCTAAATGA", "values": [{"measurement": "G. orontii Spore Production on Arabidopsis, Whole Plant Assay, % reduction", "setting": "G. orontii MGH1; whole plant assay", "value": 41, "unit": "%"}]}]}
